Measurements taken from patent US20160083465A1 (AVEO PHARMACEUTICALS, published 2016).
Changes are numbered by the printed parent chain. One block for each binder: values may come before it.

How the values were obtained:
[1] = target: T1, mouse IgG1 Fc-mature human GDF15 fusion protein (mFc-rhGDF15) (mouse; human); assay: SPR Biacore T100, 37 C, antibody from supernatant captured by anti-human IgG Fc, antigen in solution
T1 construct: Made in CHOK1SV cells, purified by Protein A and size exclusion; also called mouse Fc fused to human GDF15
T1 chain: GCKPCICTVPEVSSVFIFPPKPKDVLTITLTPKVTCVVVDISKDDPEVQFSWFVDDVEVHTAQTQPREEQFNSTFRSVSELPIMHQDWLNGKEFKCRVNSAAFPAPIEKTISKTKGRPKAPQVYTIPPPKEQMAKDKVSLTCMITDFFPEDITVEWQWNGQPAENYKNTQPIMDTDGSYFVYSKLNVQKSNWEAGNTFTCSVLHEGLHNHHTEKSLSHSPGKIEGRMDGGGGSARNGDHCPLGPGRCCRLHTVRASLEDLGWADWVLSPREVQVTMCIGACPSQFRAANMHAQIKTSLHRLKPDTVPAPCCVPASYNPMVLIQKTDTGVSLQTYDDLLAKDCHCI

[2] = target: T1, mouse IgG1 Fc-mature human GDF15 fusion …; assay: SPR Biacore T100, 37 C, purified antibody captured by anti-human IgG Fc, antigen in solution
Experimental: (§1) Goat anti-human IgGs (Fc fragment specific, Jackson ImmunoResearch, West Grove, Pa.) were immobilized on carboxymethylated dextran CM4 sensor chips by amine coupling, according to a standard protocol. Analyses were performed at 37° C. using PBS containing 0.05% surfactant P20 as running buffer. The antibodies were captured in individual flow cells at a flow rate of 10 μL/minute. Injection time was varied for each antibody to yield an Rmax between 30 and 60 RU. […] The dissociation phase was monitored for up to 1200 seconds. The surface was then regenerated with two 60-second injections of 10 mM Glycine-HCl, pH 2.25, at a flow rate of 30 μL/minute.
(§2) Kinetic parameters were determined using the kinetic function of the BIAevaluation software (GE Healthcare) with double reference subtraction.

[3] = target: T1, mouse IgG1 Fc-mature human GDF15 fusion …; assay: SPR Biacore T100, 37 C, antibody captured by anti-mouse IgG, antigen in solution
Experimental: as §1, with “Rabbit anti-mouse” for “Goat anti-human”, “(GE Healthcare)” for “(Fc fragment specific, Jackson ImmunoResearch, West Grove, Pa.)”, “chips (GE Healthcare)” for “chips”, “RU. 250 μg/mL mouse Fc (Jackson ImmunoResearch, West Grove, Pa.) was injected at 30 μL/minute for 120 seconds to block non-specific binding of capture antibodies to mouse Fc portion of the recombinant GDF15 protein when needed.” for “RU.”, “1500” for “1200”, “1.7,” for “2.25,”
as §2

B1: Hu01G06-105 (antibody, human IgG1, kappa)
heavy: not shown
light: DIQMTQSPSSLSASVGDRVTITCRTSENLHNYLAWYQQKPGKSPKLLIYDAKTLADGVPSRFSGSGSGTDYTLTISSLQPEDFATYYCQHFWSSPYTFGQGTKLEIKRTVAAPSVFIFPPSDEQLKSGTASVVCLLNNFYPREAKVQWKVDNALQSGNSQESVTEQDSKDSTYSLSSTLTLSKADYEKHKVYACEVTHQGLSSPVTKSFNRGEC
notes: Humanized, human IgG1 kappa; tested in supernatant
Kd [1]: 0.13 nM
koff [1]: 0.00056 s⁻¹
kon [1]: 4.3e+06 M⁻¹ s⁻¹

B2: Hu01G06-114 (antibody, human IgG1, kappa)
heavy: not shown
light: B1 light with S43A
notes: as for B1
Kd [1]: 0.13 nM
koff [1]: 0.00054 s⁻¹
kon [1]: 4.5e+06 M⁻¹ s⁻¹

B3: Hu01G06-102 (antibody, human IgG1, kappa)
heavy: not shown
light: B1 light with I48V
notes: as for B1
Kd [1]: 0.11 nM
koff [1]: 0.00046 s⁻¹
kon [1]: 4.4e+06 M⁻¹ s⁻¹

B6: Hu01G06-108 (antibody, human IgG1, kappa)
heavy: not shown
light: B1 light
notes: as for B1
Kd [1]: 0.12 nM
koff [1]: 0.00046 s⁻¹
kon [1]: 4.2e+06 M⁻¹ s⁻¹

B10: Hu01G06-107 (antibody, human IgG1, kappa)
heavy: not shown
light: B1 light
notes: as for B1
Kd [1]: 0.12 nM
koff [1]: 0.00047 s⁻¹
kon [1]: 4.1e+06 M⁻¹ s⁻¹

B11: Hu01G06-104 (antibody, human IgG1, kappa)
heavy: not shown
light: B1 light with I48V
notes: as for B1
Kd [1]: 0.12 nM
koff [1]: 0.00052 s⁻¹
kon [1]: 4.5e+06 M⁻¹ s⁻¹

B12: Hu01G06-100 (antibody, human IgG1, kappa)
heavy: not shown
light: B1 light with I48V
notes: as for B1
Kd [1]: 0.15 nM
koff [1]: 0.00062 s⁻¹
kon [1]: 4.1e+06 M⁻¹ s⁻¹

B13: Hu01G06-111 (antibody, human IgG1, kappa)
heavy: not shown
light: B1 light with S43A
notes: as for B1
Kd [1]: 0.16 nM
koff [1]: 0.00066 s⁻¹
kon [1]: 4.3e+06 M⁻¹ s⁻¹

B15: Hu01G06-52 (antibody, human IgG1, kappa)
heavy: not shown
light: B1 light with I48V
notes: Humanized, human IgG1 kappa
Kd [2]: 0.099 nM
koff [2]: 0.00036 s⁻¹
kon [2]: 3.6e+06 M⁻¹ s⁻¹
Kd [1]: 0.089 nM
koff [1]: 0.00044 s⁻¹
kon [1]: 5e+06 M⁻¹ s⁻¹

B20: Hu06C11-27 (antibody, human IgG1, kappa)
heavy: not shown
light: DIQMTQSPSSLSASVGDRVTITCKASQNVGTNVAWFQQKPGKAPKSLIYSASYRYSGVPSRFSGSGSGTDFTLTISSLQPEDFATYYCQQYNNYPLTFGQGTKLEIKRTVAAPSVFIFPPSDEQLKSGTASVVCLLNNFYPREAKVQWKVDNALQSGNSQESVTEQDSKDSTYSLSSTLTLSKADYEKHKVYACEVTHQGLSSPVTKSFNRGEC
notes: Humanized, human IgG1 kappa
Kd [2]: 0.18 nM
koff [2]: 0.00082 s⁻¹
kon [2]: 4.7e+06 M⁻¹ s⁻¹

B21: Hu14F11-39 (antibody, human IgG1, kappa)
heavy: not shown
light: B20 light with A43S, S46A, A51P, Y87F, N93S, L96H
notes: Humanized, human IgG1 kappa
Kd [2]: 0.066 nM
koff [2]: 0.00019 s⁻¹
kon [2]: 3e+06 M⁻¹ s⁻¹

B23: Hu06C11-30 (antibody, human IgG1, kappa)
heavy: not shown
light: B20 light
notes: Humanized, human IgG1 kappa
Kd [2]: 0.18 nM
koff [2]: 0.00087 s⁻¹
kon [2]: 4.8e+06 M⁻¹ s⁻¹

B24: Hu01G06-1 (antibody, human IgG1, kappa)
heavy: not shown
light: DIQMTQSPASLSASVGETVTITCRTSENLHNYLAWYQQKQGKSPQLLVYDAKTLADGVPSRFSGSGSGTQYSLKINSLQPEDFGSYYCQHFWSSPYTFGGGTKLEIKRTVAAPSVFIFPPSDEQLKSGTASVVCLLNNFYPREAKVQWKVDNALQSGNSQESVTEQDSKDSTYSLSSTLTLSKADYEKHKVYACEVTHQGLSSPVTKSFNRGEC
notes: Mouse variable regions, human IgG1 and kappa constant regions; also called Chimeric 01G06; chimeric 01G06 (Hu01G06-1)
Kd [2]: 0.16 nM
koff [2]: 0.00064 s⁻¹
kon [2]: 4.2e+06 M⁻¹ s⁻¹
Kd [1]: 0.14 nM
koff [1]: 0.00071 s⁻¹
kon [1]: 4.9e+06 M⁻¹ s⁻¹

Second part, the binder after the results:

Kd [1]: 0.11 nM
koff [1]: 0.00048 s⁻¹
kon [1]: 4.5e+06 M⁻¹ s⁻¹
B4: Hu01G06-113 (antibody, human IgG1, kappa)
heavy: not shown
light: B1 light with S43A
notes: as for B1

Kd [1]: 0.11 nM
koff [1]: 0.00047 s⁻¹
kon [1]: 4.4e+06 M⁻¹ s⁻¹
B5: Hu01G06-103 (antibody, human IgG1, kappa)
heavy: not shown
light: B1 light with I48V
notes: as for B1

Kd [1]: 0.14 nM
koff [1]: 0.00063 s⁻¹
kon [1]: 4.4e+06 M⁻¹ s⁻¹
B7: Hu01G06-101 (antibody, human IgG1, kappa)
heavy: not shown
light: B1 light with I48V
notes: as for B1

Kd [1]: 0.16 nM
koff [1]: 0.0007 s⁻¹
kon [1]: 4.3e+06 M⁻¹ s⁻¹
B8: Hu01G06-106 (antibody, human IgG1, kappa)
heavy: not shown
light: B1 light
notes: as for B1

Kd [1]: 0.13 nM
koff [1]: 0.00056 s⁻¹
kon [1]: 4.6e+06 M⁻¹ s⁻¹
B9: Hu01G06-109 (antibody, human IgG1, kappa)
heavy: not shown
light: B1 light
notes: as for B1

Kd [1]: 0.12 nM
koff [1]: 0.00053 s⁻¹
kon [1]: 4.7e+06 M⁻¹ s⁻¹
B14: Hu01G06-112 (antibody, human IgG1, kappa)
heavy: not shown
light: B1 light with S43A
notes: as for B1

Kd [1]: 0.14 nM
koff [1]: 0.00058 s⁻¹
kon [1]: 4.3e+06 M⁻¹ s⁻¹
B16: Hu01G06-110 (antibody, human IgG1, kappa)
heavy: not shown
light: B1 light with S43A
notes: as for B1

Kd [2]: 0.11 nM
koff [2]: 0.00038 s⁻¹
kon [2]: 3.6e+06 M⁻¹ s⁻¹
Kd [1]: 0.1 nM
koff [1]: 0.00043 s⁻¹
kon [1]: 4.1e+06 M⁻¹ s⁻¹
B17: Hu01G06-46 (antibody, human IgG1, kappa)
heavy: not shown
light: B1 light with I48V
notes: Humanized, human IgG1 kappa

Kd [2]: 0.18 nM
koff [2]: 0.00084 s⁻¹
kon [2]: 5.3e+06 M⁻¹ s⁻¹
B18: Hu06C11-1 (antibody, human IgG1, kappa)
heavy: not shown
light: DIVMTQSQKFMSTSVGDRVSVTCKASQNVGTNVAWFQQKPGQSPKALIYSASYRYSGVPDRFTGSGSGTDFILTISNVQSEDLAEYFCQQYNNYPLTFGAGTKLELKRTVAAPSVFIFPPSDEQLKSGTASVVCLLNNFYPREAKVQWKVDNALQSGNSQESVTEQDSKDSTYSLSSTLTLSKADYEKHKVYACEVTHQGLSSPVTKSFNRGEC
notes: Mouse variable regions, human IgG1 and kappa constant regions; also called Chimeric 06C11

Kd [3]: 0.19 nM
koff [3]: 0.0011 s⁻¹
kon [3]: 6e+06 M⁻¹ s⁻¹
B19: 08G01 (antibody, mouse IgG2b, kappa)
heavy: EVLLQQSGPEVVKPGASVKIPCKASGYTFTDYNMDWVKQSHGKSLEWIGEINPNNGGTFYNQKFKGKATLTVDKSSSTAYMELRSLTSEDTAVYYCAREAITTVGAMDYWGQGTSVTVSSAKTTPPSVYPLAPGCGDTTGSSVTLGCLVKGYFPESVTVTWNSGSLSSSVHTFPALLQSGLYTMSSSVTVPSSTWPSQTVTCSVAHPASSTTVDKKLEPSGPISTINPCPPCKECHKCPAPNLEGGPSVFIFPPNIKDVLMISLTPKVTCVVVDVSEDDPDVQISWFVNNVEVHTAQTQTHREDYNSTIRVVSTLPIQHQDWMSGKEFKCKVNNKDLPSPIERTISKIKGLVRAPQVYILPPPAEQLSRKDVSLTCLVVGFNPGDISVEWTSNGHTEENYKDTAPVLDSDGSYFIYSKLNMKTSKWEKTDSFSCNVRHEGLKNYYLKKTISRSPGK
light: DIQMTQSPASLSASVGETVTITCRASGNIHNYLAWYQQKQGKSPQLLVYNAKTLADGVPSRFSGSGSGTQYSLKINSLQPEDFGSYYCQHFWSSPYTFGGGTKLEIKRADAAPTVSIFPPSSEQLTSGGASVVCFLNNFYPKDINVKWKIDGSERQNGVLNSWTDQDSKDSTYSMSSTLTLTKDEYERHNSYTCEATHKTSTSPIVKSFNRNEC
notes: Murine monoclonal from hybridoma, IgG2b kappa; also called antibody 08G01

Kd [2]: 0.065 nM
koff [2]: 0.00018 s⁻¹
kon [2]: 3.3e+06 M⁻¹ s⁻¹
B22: Hu14F11-47 (antibody, human IgG1, kappa)
heavy: not shown
light: B20 light with A43S, S46A, A51P, Y87F, N93S, L96H
notes: Humanized, human IgG1 kappa
